Results reported in patent publication US10562935B2, “Stapled peptides and uses thereof” (London Health Sciences Centre Research Inc., priority 2015, dated 2020).
Bridges are numbered along the chain shown (N, C = ends).

Legend:
[1] = Circular dichroism (CD) spectroscopy of linear and stapled peptides in water or 40% TFE/water (Example 3); format: physicochemical; conditions: for [0]208 mean residue ellipticity: λ = 208 nm; for [0]222 mean residue ellipticity: λ = 222 nm
Protocol: CD spectra were obtained on a Jasco J-810 spectropolarimeter and recorded in the range of 180-260 nm. Peptide solutions were prepared with a 0.1M phosphate buffer solution to a concentration of 0.5 mM. The measurements were performed in quartz cuvettes with a path length of 1 mm and a scanning speed of 10-50 nm/min. Five individual data points were averaged by the instrument in order to obtain the reported CD spectrum. The measurements were carried out at 20° C. A blank solution of 0.1M phosphate buffer solution was run before every measurement in order to baseline correct for any UV-interference observed from the buffer.
CD data for the 14- and 15-mer peptides containing HABD2 (VSKLRSQLVKRKQN, SEQ ID NO: 2) and HABD1 (NLKQKIKHVVKLKDE, SEQ ID NO: 4) and cyclized derivatives thereof in water or 40% TFE/water are provided below in Tables 8 (water) and 9 (40% TFE/water). Tables 8 and 9 provide the mean residue ellipicity ([θ] deg cm^2 dmol^−1) at λ=222 and 208 nm for each peptide and ratios of ellipticities at 222/208. Each of the peptides was acetylated at its amino terminus and amidated at its carboxy terminus.
CD data for linear peptides having the sequences […] (SEQ ID NO: 5) and […] (SEQ ID NO: 6) and cyclized derivatives thereof in water or 40% TFE/water are provided below in Tables 12 (water) and 13 (40% TFE/water). Tables 12 and 13 provide the mean residue ellipicity ([0] deg cm^2 dmol^−1) at λ=222 and 208 nm for each peptide and ratios of ellipticities at 222/208. Each of the peptides was acetylated at its amino terminus and amidated at its carboxy terminus.
Circular Dichroism (CD) spectroscopy is a tool that is used to study the secondary structure characteristics of a compound. Peptides and proteins can fold into organized structures, such as alpha helices and beta sheets, which are the result of complex hydrogen bonding and other interactions between amino acid side chains, as well as adopt a random coil formation, which lacks much of the organization of the other two structures. The CD spectrum of an alpha helix is characterized by two local minima at 208 nm and 222 nm. The ratio of the values of the molar ellipticities at these wavelengths ([θ]222/[θ]208) is a strong indication of the relative helicity of a compound; a compound is more helical when the ratio of these two values approaches 1.0. Synthetic constraints introduced to the peptide backbone can force a peptide chain to increase its helical character. These constraints can be introduced by staples, of varying types, which allow cyclization of the peptide backbone to take place.

[2] = Direct HA-binding ELISA of biotinylated peptides on HA coated plates (Example 4); set-up: key to HA binding: absorbance (color) read at 450 nm; conditions: for HA binding: as repeated in tables 16, 18, 20; for HA direct binding (OD): optical density, summary tables 15, 17, 19
Protocol: Each of these peptides was biotinylated at its amino-terminus, and an AEEA spacer was included to separate the peptide sequence from the biotin molecule.
HA coated plates were purchased (ECHELON). Peptides were dissolved in 2 mM PBS to constant molarity, aliquoted and stored at −20° C. until used in assays. 7 kDa biotin-labeled RHAMM (SEQ ID NO: 1) was synthesized and used as a positive control in these assays. Biotin labeled peptides were added to the HA coated wells (n=3 replicates/peptide) at either 0.8 or 0.08 μM and then incubated with shaking overnight at 4° C. Wells were washed free of excess unbound peptides using 200 μl PBS (4 times). 100 μl of Streptavidin-HRP was then added to each well and the plate was incubated at room temperature for 1 hr. The plate was then washed with 200 μl PBS/well 4 times and TMB Liquid Substrate System for ELISA (Sigma) was added to each well, incubated for 5-10 min at room temperature and color read at 450 nm Plate Reader (BioTek, SYNERGY H4, Hybrid Reader).
Direct HA-binding results for the biotinylated equivalents of compounds 132 and 150-161 are show in FIG. 39, and results for compounds 265-268 and 275-278 are shown in FIG. 40.

[3] = Circular dichroism (CD) spectroscopy of HABD2 peptides in Milli-Q water (Example 1); format: physicochemical; conditions: for [θ]222/[θ]208 ratio of ellipticities / fH fraction helicity / Molar ellipticity [θ]192 / Molar ellipticity [θ]208 / Molar ellipticity [θ]222: 0.5 mM in Milli-Q water; for fH fraction helicity: equations 1-3; for α-helical character by CD (in words): Milli-Q water; for Molar ellipticity [θ]192: λ = 192 nm; for Molar ellipticity [θ]208: λ = 208 nm; for Molar ellipticity [θ]222: λ = 222 nm
Text: In addition, a large mean residue ellipticity indicates greater α-helical character. […] This was predicted to be the case, as there is a lack of contributing residues that might form a hydrophobic core, thereby helping to stabilize the secondary structure of the linear peptide. For this reason, bridges were introduced into the peptides. […] The differences in α-helicity induced by the bridges placed at different points within each peptide may be due to the differences in their primary sequences. Specifically, two amino acids (at the i and i+4 position) have to be replaced in order to form the lactam bridge. In compound 133, leucine was replaced at both the i and i+4 position; while in compound 136, glutamine was replaced at the i position and aspartic acid was replaced at i+4. Leucine and glutamine are proposed to be helix-stabilizing residues.
A larger portion of the RHAMM protein was used as the reference for α-helical character of the truncated peptides. 7 kDa RHAMM (SEQ ID NO: 1) is a mini protein that is composed of 62 amino acids, which was derived from the C-terminus of the full-length RHAMM sequence. It contains both HABDs, and is predicted to have almost complete α-helix shape, similar to that of native full-length RHAMM.
A peptide's α-helicity can be quantified using equations 1-3: fH=[([θ]obs222−[θ]c)/([θ]max222−[θ]c)] (Equation 1) [θ]c=2220+53T (Equation 2) [θ]max222=(−44000+250T)(1−k/N) (Equation 3) where fH is the ratio of the average number of helical hydrogen bonds divided by the total number of hydrogen bonds that can be found in a peptide, T is the temperature in degrees Celsius, N is the number of residues in the peptide and k is a constant of ellipticity when 100% of the structure is α-helical (3 for carboxyamidated peptides).
Milli-Q water was chosen as the solvent in which all peptides would be dissolved for CD spectroscopy, as it is a UV invisible solvent, which is a requirement of the analytical technique, and it represents RHAMM's natural environment in the body. Luo and Baldwin [18] stated that when peptides are taken out of their native protein sequence, they usually show little to no helical formation in water alone. For this reason, TFE/H2O solutions are commonly used in studies to observe the α-helix characteristics, and may improve the helical nature of the peptides observed here. However, a helix-stabilizing solvent, such as TFE, would not be as contextually relevant, as there are no solvent stabilizing effects in the body. Thus use of TFE would tend to produce skewed results and not be representative of the peptide's natural behavior.

[4] = [θ]222/[θ]208 ratio in water, summary tables 15, 17, 19
[5] = as repeated in tables 16, 18, 20

Molecule	[θ]222/[θ]208 ratio of ellipticities [1, 4]	[θ]222/[θ]208 ratio of ellipticities [1, 5]	[0]222/[0]208 ratio of ellipticities ([1]; in 40% TFE/water)	[0]222/[0]208 ratio of ellipticities ([1]; in water)	[0]208 mean residue ellipticity ([1]; in 40% TFE/water)	[0]208 mean residue ellipticity ([1]; in water)	[0]222 mean residue ellipticity ([1]; in 40% TFE/water)	HA binding [2]	HA direct binding (OD) [2]	[θ]222/[θ]208 ratio of ellipticities [3]	fH fraction helicity [3]	α-helical character by CD (in words) [3]	Molar ellipticity [θ]192 [3]	Molar ellipticity [θ]208 [3]	Molar ellipticity [θ]222 [3]	[0]222 mean residue ellipticity ([1]; in water)
Ac-(cyclo-6,10)-VSKLR[KQLVE]RKQN-NH2 (Ac-VSKLRKQLVERKQN-NH2; lactam 6-10; SMILES CC(=O)N[C@H](C(=O)N[C@@H](CO)C(=O)N[C@@H](CCCCN)C(=O)N[C@@H](CC(C)C)C(=O)N[C@@H](CCCNC(=N)N)C(=O)N[C@H]1CCCCNC(=O)CC[C@@H](C(=O)N[C@@H](CCCNC(=N)N)C(=O)N[C@@H](CCCCN)C(=O)N[C@@H](CCC(N)=O)C(=O)N[C@@H](CC(N)=O)C(N)=O)NC(=O)[C@H](C(C)C)NC(=O)[C@H](CC(C)C)NC(=O)[C@H](CCC(N)=O)NC1=O)C(C)C) [Compound 155]	0.37	0.37	0.75	0.37	-1.71E+04 deg cm^2 dmol^−1	-5.30E+03 deg cm^2 dmol^−1	-1.28E+04 deg cm^2 dmol^−1	0.05	0.05 OD							
H-(cyclo-7,11)-VSKLRS[ELVKK]KQN-NH2 (H-VSKLRSELVKKKQN-NH2; lactam 7-11; SMILES CC(C)C[C@H](NC(=O)[C@H](CCCCN)NC(=O)[C@H](CO)NC(=O)[C@@H](N)C(C)C)C(=O)N[C@@H](CCCNC(=N)N)C(=O)N[C@@H](CO)C(=O)N[C@H]1CCC(=O)NCCCC[C@@H](C(=O)N[C@@H](CCCCN)C(=O)N[C@@H](CCC(N)=O)C(=O)N[C@@H](CC(N)=O)C(N)=O)NC(=O)[C@H](CCCCN)NC(=O)[C@H](C(C)C)NC(=O)[C@H](CC(C)C)NC1=O) [Compound 136]										0.30	0.14	did not seem to stabilize	1437.80 deg cm^2 dmol^−1 residue^−1	−5084.93 deg cm^2 dmol^−1 residue^−1	−1568.07 deg cm^2 dmol^−1 residue^−1	
Ac-(cyclo-5,9)-VSKL[KSQLE]KRKQN-NH2 (Ac-VSKLKSQLEKRKQN-NH2; lactam 5-9; SMILES CC(=O)N[C@H](C(=O)N[C@@H](CO)C(=O)N[C@@H](CCCCN)C(=O)N[C@@H](CC(C)C)C(=O)N[C@H]1CCCCNC(=O)CC[C@@H](C(=O)N[C@@H](CCCCN)C(=O)N[C@@H](CCCNC(=N)N)C(=O)N[C@@H](CCCCN)C(=O)N[C@@H](CCC(N)=O)C(=O)N[C@@H](CC(N)=O)C(N)=O)NC(=O)[C@H](CC(C)C)NC(=O)[C@H](CCC(N)=O)NC(=O)[C@H](CO)NC1=O)C(C)C) [Compound 154]	0.20	0.20	0.75	0.20	-1.18E+04 deg cm^2 dmol^−1	-4,95E+03 deg cm^2 dmol^−1	-8.78E+03 deg cm^2 dmol^−1	0.045	0.045 OD							-9.74E+02 deg cm^2 dmol^−1
H-(cyclo-5,9)-VSKL[ESQLK]KRKQN-NH2 (H-VSKLESQLKKRKQN-NH2; lactam 5-9; SMILES CC(C)C[C@@H]1NC(=O)[C@H](CCC(N)=O)NC(=O)[C@H](CO)NC(=O)[C@@H](NC(=O)[C@H](CC(C)C)NC(=O)[C@H](CCCCN)NC(=O)[C@H](CO)NC(=O)[C@@H](N)C(C)C)CCC(=O)NCCCC[C@@H](C(=O)N[C@@H](CCCCN)C(=O)N[C@@H](CCCNC(=N)N)C(=O)N[C@@H](CCCCN)C(=O)N[C@@H](CCC(N)=O)C(=O)N[C@@H](CC(N)=O)C(N)=O)NC1=O) [Compound 134]										0.57	0.22	increase in α-helix structure	1002.14 deg cm^2 dmol^−1 residue^−1	−7685.97 deg cm^2 dmol^−1 residue^−1	−4403.89 deg cm^2 dmol^−1 residue^−1	
7 kDa RHAMM: mini protein of 62 amino acids derived from the C-terminus of full-length RHAMM, contains both HABDs; reference for α-helical character (protein, listed as Mus musculus) RDSYAQLLGHQNLKQKIKHVVKLKDENSQLKSEVSKLRSQLVKRKQNELRLQGELDKALGIR										0.46	0.18		1839.66 deg cm^2 dmol^−1 residue^−1	−7553.76 deg cm^2 dmol^−1 residue^−1	−4046.60 deg cm^2 dmol^−1 residue^−1	
